Data published in patent publication US9926375B2, “Anti-endoglin antibodies and uses thereof” (Tracon Pharmaceuticals, Inc., priority 2014, dated 2018).
Each block holds one molecule with its values, some of them ahead of it.

Key:
[1] = biological target: T1, human CD105 (Homo sapiens, UniProt P17813); experiment: Competition ELISA against biotinylated TRC205 antibody for binding to human CD105; settings: biotinylated TRC205 55 ng/ml
T1 construct: purchased R&D Systems 1097-EN
T1 sequence (P17813 26-586 limits assumed): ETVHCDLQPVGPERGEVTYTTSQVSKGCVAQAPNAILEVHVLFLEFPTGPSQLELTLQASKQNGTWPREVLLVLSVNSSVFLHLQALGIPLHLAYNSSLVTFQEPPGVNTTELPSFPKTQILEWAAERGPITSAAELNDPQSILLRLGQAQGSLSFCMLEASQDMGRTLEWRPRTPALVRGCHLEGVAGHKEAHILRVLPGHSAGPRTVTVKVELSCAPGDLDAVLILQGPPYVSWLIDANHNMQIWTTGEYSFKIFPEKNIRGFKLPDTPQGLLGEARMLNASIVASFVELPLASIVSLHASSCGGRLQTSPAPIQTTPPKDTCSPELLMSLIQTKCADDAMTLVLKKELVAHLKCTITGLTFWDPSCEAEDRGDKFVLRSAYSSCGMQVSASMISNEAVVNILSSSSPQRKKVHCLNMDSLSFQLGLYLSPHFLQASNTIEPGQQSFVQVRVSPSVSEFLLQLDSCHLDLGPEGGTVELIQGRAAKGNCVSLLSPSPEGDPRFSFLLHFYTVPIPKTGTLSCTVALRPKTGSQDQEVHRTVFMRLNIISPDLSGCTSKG
Experimental: After washing three times with PBST, a three-fold dilution series of either human BMP9 (R&D Systems Cat. No. 3209-BP-010) (413 nM to 0.56 nM), or unlabelled TRC205 antibody (40 nM to 0.05 nM) or a single concentration of an irrelevant antibody (66 nM) was mixed with a fixed concentration of biotinylated TRC205 antibody (55 ng/ml) and added to the plate. Following incubation for 1 hour at room temperature, the plate was washed three times with PBST and binding of the biotinylated TRC205 antibody was detected using streptavidin-HRP (Sigma Cat. No. 55512) and TMB substrate (Sigma Cat. No. T0440). OD450 nm values were measured on a Dynex MRX TCII plate reader.

[2] = biological target: T2, human endoglin (Homo sapiens, UniProt P17813); experiment: BIAcore (surface plasmon resonance) analysis of anti-endoglin antibody binding; settings: antibody captured on protein A chip, 25 degrees Celsius
T2 sequence (P17813 26-658): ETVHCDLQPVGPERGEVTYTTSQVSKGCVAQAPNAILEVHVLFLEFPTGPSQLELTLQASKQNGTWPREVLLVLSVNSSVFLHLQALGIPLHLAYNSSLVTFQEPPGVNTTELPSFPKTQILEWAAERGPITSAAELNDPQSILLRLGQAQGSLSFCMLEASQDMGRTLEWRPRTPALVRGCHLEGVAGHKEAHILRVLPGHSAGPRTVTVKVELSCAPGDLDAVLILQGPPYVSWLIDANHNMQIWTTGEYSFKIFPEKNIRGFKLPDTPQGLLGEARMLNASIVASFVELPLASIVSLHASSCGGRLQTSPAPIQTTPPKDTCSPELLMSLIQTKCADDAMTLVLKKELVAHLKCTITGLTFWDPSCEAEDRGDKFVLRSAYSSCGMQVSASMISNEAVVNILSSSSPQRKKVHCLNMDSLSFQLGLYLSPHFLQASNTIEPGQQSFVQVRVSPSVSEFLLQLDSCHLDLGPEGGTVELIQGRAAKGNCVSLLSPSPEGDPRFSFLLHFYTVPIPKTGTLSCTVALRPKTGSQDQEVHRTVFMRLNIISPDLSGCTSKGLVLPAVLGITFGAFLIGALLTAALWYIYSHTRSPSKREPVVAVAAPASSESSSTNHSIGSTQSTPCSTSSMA
Experimental: Affinity of antibodies can be assessed using, for example, BIAcore analysis using standard protocols. Briefly, protein A is chemically coupled to a BIAcore CM5 chip, with the amount of protein A immobilized corresponding to 2000 RU. Subsequent steps are performed in a running buffer of 10 mM HEPES, 150 mM NaCl, 3 mM EDTA, 0.05% TWEEN, pH=7.4, at 25 degrees Celsius using a 10 Hz data collection rate. Anti-endoglin antibody (10 nM) is captured at a 10 μL/min flow rate by the immobilized protein A on the BIAcore chip: typically, capture times of 20, 40 and 80 seconds allow the capture of antibody densities corresponding to 130 RU, 330 RU and 570 RU, respectively. Start-up cycles are performed using running buffer at a flow rate of 40 μL/min, a contact time of 90 seconds and a dissociation time of 90 seconds. Sample cycles are performed using recombinant endoglin at concentrations ranging from 0 to 40 nM. Endoglin is passed over the BIAcore chip containing captured antibody at a flow rate of 40 μL/min with a contact time of 525 seconds and dissociation time of 2500 seconds. Eight sample cycles are typically performed at each antibody capture density. Regeneration of the chip is accomplished using 10 mM glycine pH=1.7. Data analysis is performed using BIAcore T100 Evaluation Software v1.1 Signals generated using BIAcore chips with different captured antibody densities are compared and data generated in the absence of recombinant endoglin are used to adjust for the intraassay blank signal. For fitting of the data, the Rmax is allowed to float to account for variation in capture levels of each antibody in each cycle. Data from each capture density is fitted simultaneously during analysis of each antibody. BIAcore data are presented in Table 2 for chimeric, humanized and deimmunized anti-endoglin antibodies, including ka (1/Ms), kd (1/s), KD (M) and Chi^2 (RU^2).

[3] = test system: peripheral blood mononuclear cells (PBMCs); experiment: EpiScreen time course T cell proliferation assay with intact anti-endoglin antibodies; assay type: cell-based, human; settings: of 20 donors; 50 μg/mL antibody; SI≥2 (borderline ≥1.90), p<0.05
From the text: This example describes a method of screening anti-endoglin antibodies for T-cell epitopes. The interaction between MHC, polypeptide and T cell receptor (TCR) provides the structural basis for the antigen specificity of T cell recognition. T cell proliferation assays test the binding of polypeptides processed from antibodies to MHC and the recognition of MHC/polypeptide complexes by the TCR. In vitro T cell proliferation assays of the present example, involve the stimulation of peripheral blood mononuclear cells (PBMCs), containing antigen presenting cells (APCs) and T cells. Stimulation is conducted in vitro using intact anti-endoglin antibodies. Stimulated T cell proliferation is measured using ^3H-thymidine (^3H-Thy) and the presence of incorporated ^3H-Thymidine is assessed using scintillation counting of washed fixed cells.
Anti-endoglin antibodies were purified from the supernatants of mammalian cultures by protein A chromatography. Buffer exchange and protein concentration was done using PBS pH=7.4. Anti-endoglin antibody was further purified by size exclusion chromatography using a Sephacryl S200 column (GE Healthcare, AMersham, UK). The major peak is collected, filter sterilized and shown to have endotoxin levels <5 EU/mg using an Endosafe-PTS (Charles River, Margate, UK). The purified antibodies are stored at 4 degrees Celsius. Final concentrations were determined by UV absorption using calculated molar extinction coefficients, where A280 1.0=1.62 mg/mL. Each antibody was then diluted to 100 μg/mL in AIMV culture medium.
Peripheral Blood Mononuclear cells (PBMC) are isolated from healthy community donor buffy coats (from blood drawn within 24 hours) which are obtained from the UK National Blood Transfusion Service (Addenbrooke's Hospital, Cambridge, UK) according to approval granted by Addenbrooke's Hospital Local Research Ethics Committee. PBMC are isolated from buffy coats by Lymphoprep (Axis-shield, Dundee, Scotland) density centrifugation and CD8+ T cells are depleted using CD8+ RossetteSep™ (StemCell Technologies, Inc.). Donors are characterized by identifying HLA-DR haplotypes using a Biotest HLA SSP-PCR based tissue-typing kit (Biotest, Landsteinerstralβe, […]). T cell responses to a control antigen, Keyhole Limpet Haemocyanin (KLH) (Pierce, Rockford, Ill., USA) are determined for a positive control. PBMC were then frozen and stored in liquid nitrogen until required. When required for use, cells are thawed rapidly in a water bath at 37° C. before transferring to 10 ml pre-warmed AIM V medium.
A cohort of 20 donors is selected to best represent the number and frequency of HLA-DR allotypes expressed in the world population. […]
PBMCs from each donor are thawed, counted and viability assessed. […]

- IC50 of competition with biotinylated TRC205 antibody [1]: 0.35 µg/mL
Molecule: BMP9: human BMP9 (R&D Systems Cat. No. 3209-BP-010), endoglin ligand [reference compound]

- ka [2]: 46000 M⁻¹ s⁻¹
- kd [2]: 3.25e-05 s⁻¹
B1: VK1AAVH1A2: humanized/deimmunized anti-endoglin IgG1; light chain SEQ ID NO: 93 (VK1AA), heavy chain SEQ ID NO: 89 (VH1A2) (antibody, V domains shown)
VH: EVQLVESGGGLVKPGGSLRLSCAASGFTFSDAWMDWVRQAPGKGLEWVGEARSKASNHATYYAESVKGRFTISRDDSKNTLYLQMNSLKTEDTAVYYCTRWRRFFDSWGQGTLVTVSS
VL: DIQMTQSPSSLSASVGDRATITCRASSSVSYMHWYQQKPGKAPKPWAYATSNLASGVPSRFSGSGSGTDYTLTISSLQPEDFATYYCQQWSSNPLTFGGGTKVEIK
- Donors with positive T cell proliferation responses [3]: none of the donors in the study cohort responded positively
